Laboratory results: patent publication US7964598B2 (The J. David Gladstone Institutes, priority 1995, dated 2011)

Tested on: apoE4-expressing Neuro-2a cells
Experiment: Neurite outgrowth, apoE4-expressing Neuro-2a cells
Format: cell-based, mouse
Details: in the presence of β-VLDL
Experimental: Cells were grown in DME/F12 containing 10% FBS and G418 (400 μg/ml). On the day the experiment was initiated, the cells were subcultured into 35 mm plates in DME/F12 with 10% FBS. The cells were allowed to adhere to the plastic plates for 2 hr at 37° C., and then the culture medium was changed to N2 medium with or without increasing concentrations of lipoproteins. After 48 hr at 37° C., the media were replaced with the same medium (with or without lipoproteins), and the incubation was continued for an additional 48 hr. […] Neurons were imaged in fluorescence mode with a confocal laser scanning system (MRC-600, BioRad, Hercules, Calif.), and the images were digitized with an Image-1/AT image analysis system (Universal Images, West Chester, Pa.). The neuronal images were coded before characterization, and the following variables were measured: 1) number of neurites (defined as cell surface projections at least one-half the cell diameter) on each neuron; 2) neurite branching (the number of branch points on each neurite); and 3) neurite extension (the length of the longest neurite, measured from the cell body). Typically, in each experiment the neurites of 20 to 40 neurons per plate were measured and the results preserved as the mean±S.E.M. […]

B1: lactoferrin: blocks binding of lipoproteins to both HSPG and LRP (protein, UniProt P02788 20-710, looked up)
Lactotransferrin: GRRRSVQWCAVSQPEATKCFQWQRNMRKVRGPPVSCIKRDSPIQCIQAIAENRADAVTLDGGFIYEAGLAPYKLRPVAAEVYGTERQPRTHYYAVAVVKKGGSFQLNELQGLKSCHTGLRRTAGWNVPIGTLRPFLNWTGPPEPIEAAVARFFSASCVPGADKGQFPNLCRLCAGTGENKCAFSSQEPYFSYSGAFKCLRDGAGDVAFIRESTVFEDLSDEAERDEYELLCPDNTRKPVDKFKDCHLARVPSHAVVARSVNGKEDAIWNLLRQAQEKFGKDKSPKFQLFGSPSGQKDLLFKDSAIGFSRVPPRIDSGLYLGSGYFTAIQNLRKSEEEVAARRARVVWCAVGEQELRKCNQWSGLSEGSVTCSSASTTEDCIALVLKGEADAMSLDGGYVYTAGKCGLVPVLAENYKSQQSSDPDPNCVDRPVEGYLAVAVVRRSDTSLTWNSVKGKKSCHTAVDRTAGWNIPMGLLFNQTGSCKFDEYFSQSCAPGSDPRSNLCALCIGDEQGENKCVPNSNERYYGYTGAFRCLAENAGDVAFVKDVTVLQNTDGNNNEAWAKDLKLADFALLCLDGKRKPVTEARSCHLAMAPNHAVVSRMDKVERLKQVLLHQQAKFGRNGSDCPDKFCLFQSETKNLLFNDNTECLARLHGKTTYEKYLGPQYVAGITNLKKCSTSPLLEACEFLRK
inhibition of neurite extension seen in the apoE4-expressing cells: blocked the effects of apoE3 and apoE4 on neurite outgrowth
